Source: article PMC8555152

Target: microtubule associated protein 1 light chain 3 (LC3), endogenous (human (endogenous in HEK293T)) (UniProt Q9GZQ8)
Experiment: co-IP

Question: For “HIV-1 NL4-3 Gag (p55), expressed from the provirus (natural protein)”, which reduction of the binding in SQSTM1-depleted cells relative to the control siRNA is on record?
Answer: 50%
